How the values were obtained:
[1] = biological target: T1, cynomolgus monkey DR4 with death domain deletion on ExpiCHO-S cells (cynomolgus monkey (Macaca fascicularis)); assay: flow cytometry on ExpiCHO-S cells transiently expressing cynomolgus monkey DR4 (death domain deleted), gMFI PE
T1 construct: also called cynomolgus DR4
T1 chain: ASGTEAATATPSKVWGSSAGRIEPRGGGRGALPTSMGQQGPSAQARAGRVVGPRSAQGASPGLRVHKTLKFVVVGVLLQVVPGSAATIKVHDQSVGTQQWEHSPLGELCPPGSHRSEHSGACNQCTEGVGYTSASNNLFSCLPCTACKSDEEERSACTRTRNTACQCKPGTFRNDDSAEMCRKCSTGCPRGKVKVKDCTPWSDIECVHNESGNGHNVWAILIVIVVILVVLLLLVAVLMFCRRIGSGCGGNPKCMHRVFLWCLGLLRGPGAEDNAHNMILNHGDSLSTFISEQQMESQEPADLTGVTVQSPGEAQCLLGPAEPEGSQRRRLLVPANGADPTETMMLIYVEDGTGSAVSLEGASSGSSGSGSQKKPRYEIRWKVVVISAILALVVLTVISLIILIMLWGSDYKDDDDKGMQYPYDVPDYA

[2] = biological target: T2, human DR4 with death domain deletion on ExpiCHO-S cells (human); assay: flow cytometry, ExpiCHO-S cells expressing human DR4, average ± SEM
[3] = biological target: T2, human DR4 with death domain deletion on …; assay: flow cytometry, ExpiCHO-S cells expressing human DR4, n = 2
Method: (§1) Binding of BisG1-FAPα-FERL/DR4-FERR, BisG1-DR4-FEAL/b12-FEAR and IgG1-DR4-FERR to DR4 of various species commonly used for nonclinical toxicology studies was assessed by flow cytometry using ExpiCHO-S cells transiently expressing DR4 from different animal species. In contrast to other species, rodents only express one DR which has highest homology with human DR5. Therefore, ExpiCHO-S cells transiently expressing rat and mouse DR protein were used instead. All DR constructs lack the intracellular DD to avoid apoptosis of transfected cells upon DR(4) activation. IgG1-b12 was used as negative control.

[4] = biological target: T2, human DR4 with death domain deletion on …; assay: flow cytometry, ExpiCHO-S cells expressing human DR4, n = 1
Method: as §1

[5] = biological target: T3, human FAPα (Fibroblast activation protein alpha), cell surface expressed (human, UniProt Q12884 1-760); assay: flow cytometry, human lung fibroblasts, n = 1
T3 construct: Endogenous on human lung fibroblasts and CAFs
T3 sequence: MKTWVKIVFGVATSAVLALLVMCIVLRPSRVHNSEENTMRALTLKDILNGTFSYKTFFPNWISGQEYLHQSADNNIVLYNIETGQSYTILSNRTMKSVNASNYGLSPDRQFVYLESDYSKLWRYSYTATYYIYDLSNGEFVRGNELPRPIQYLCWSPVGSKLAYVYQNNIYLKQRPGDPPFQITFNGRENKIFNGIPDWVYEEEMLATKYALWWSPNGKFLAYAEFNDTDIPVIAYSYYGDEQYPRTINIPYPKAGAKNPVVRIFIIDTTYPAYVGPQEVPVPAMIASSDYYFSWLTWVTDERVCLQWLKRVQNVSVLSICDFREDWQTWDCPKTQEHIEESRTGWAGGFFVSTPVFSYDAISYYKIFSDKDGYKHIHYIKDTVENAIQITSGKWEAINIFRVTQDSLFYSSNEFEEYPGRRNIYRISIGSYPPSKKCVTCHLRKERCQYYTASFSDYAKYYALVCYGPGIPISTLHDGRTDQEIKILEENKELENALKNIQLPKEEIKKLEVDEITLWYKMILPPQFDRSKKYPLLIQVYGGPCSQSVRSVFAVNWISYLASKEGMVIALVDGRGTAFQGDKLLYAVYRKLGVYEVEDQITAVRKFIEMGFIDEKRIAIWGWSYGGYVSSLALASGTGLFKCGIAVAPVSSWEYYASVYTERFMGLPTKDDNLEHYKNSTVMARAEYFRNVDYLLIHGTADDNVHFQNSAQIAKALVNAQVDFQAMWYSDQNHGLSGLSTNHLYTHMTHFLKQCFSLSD
Method: (§2) Human lung fibroblasts and CAFs (50,000 cells/well) were seeded in 96-Well round bottom plates (Greiner Bio-one, Cat #650101). Antibody dilutions were prepared using fluorescence-activated cell sorting (FACS) buffer, consisting of phosphate buffer saline (PBS, Lonza, Cat #BE17-517Q)+1% Bovine Serum Albumin (BSA, Roche, Cat #10735086001)+0.02% Sodium Azide (Bio-World, Cat #41920044-3). Plates were centrifuged, supernatant was removed, cells were resuspended in 50 μL of human Fc Block (BD, Cat #564220, diluted 1:100 in FACS buffer) and 50 μL of viability stain TO-PRO-3 Iodide (Thermo Fisher, Cat #T3605, diluted 1: 25,000 in FACS buffer), and incubated for 15 min at 4° C. Plates were washed three times with FACS buffer. Plates were centrifuged, supernatant was removed, cells were resuspended in 50 μL of antibody dilutions (concentration range 90-0.0005 μg/mL, three-fold dilution steps using FACS buffer) of BisG1-FAPα-FERL/DR4-FERR, BisG1-FAPα-FERL/b12-FERR, BisG1-b12-FERL/b12-FERR (top six concentrations only for CAFs culture) or IgG1-FAPα-FERL (top four concentrations only for CAFs culture) and incubated for 30 min at 4° C. Cells were washed three times with FACS buffer and resuspended in 50 μL of Fluorescein isothiocyanate (FITC)-labeled polyclonal antibody goat anti-mouse IgG1 (Jackson Immuno Research, Cat #109-096-097, diluted 1:100 in FACS buffer). After 30 min incubation at 4° C., cells were washed twice with FACS buffer and resuspended in FACS buffer. Antibody binding to viable cells (TO-PRO-3 negative) was analyzed by flow cytometry on a FACSCelesta™ (BD biosciences) and data were processed using FlowJo_v10.8.1 (FlowJo LLC). Geomean fluorescence intensity, gMFI, was determined and visualized using GraphPad Prism. Binding curves were analyzed using nonlinear regression analysis. The concentration (pg/mL) at which 50% of the maximal effect was observed (EC₅₀) was derived from the fitted curves.
(§3) Binding of FAPα-targeting monoclonal antibody clones, IgG1-FAPα-FEAL and IgG1-FAP5-FEAL, and bispecific antibodies carrying a binding arm derived from the two FAPα-binding clones (BisG1-FAPα-FEAL/b12-FEAR and BisG1-FAP5-FEAL/b12-FEAR) to human lung fibroblasts, which endogenously express FAPα, was compared and analyzed by flow cytometry.

[6] = biological target: T3, human FAPα (Fibroblast activation …); assay: flow cytometry, human lung fibroblasts, n = 2
Method: as §2, with “After 30 min incubation at 4° C., cells were washed twice with FACS buffer and resuspended in FACS buffer.” left out, “The concentration (pg/mL) at which 50% of the maximal effect was observed (EC₅₀) was derived from the fitted curves.” left out
as §3

B1: BisG1-DR4-FEAL/b12-FEAR (bispecific antibody, human IgG1, kappa, lambda)
heavy 1: QVQLQESGPGLVKPSGTLSLTCAVSGGSISSYSWWSWIRQPPGKGLEWIGELYHSGSTNYNPSLKSRVTISVDKSKNQFSLKLRSVTAADTAVYYCVRGVATIDYWGQGTLVTVSSASTKGPSVFPLAPSSKSTSGGTAALGCLVKDYFPEPVTVSWNSGALTSGVHTFPAVLQSSGLYSLSSVVTVPSSSLGTQTYICNVNHKPSNTKVDKRVEPKSCDKTHTCPPCPAPEFEGGPSVFLFPPKPKDTLMISRTPEVTCVVVAVSHEDPEVKFNWYVDGVEVHNAKTKPREEQYNSTYRVVSVLTVLHQDWLNGKEYKCKVSNKALPAPIEKTISKAKGQPREPQVYTLPPSREEMTKNQVSLTCLVKGFYPSDIAVEWESNGQPENNYKTTPPVLDSDGSFLLYSKLTVDKSRWQQGNVFSCSVMHEALHNHYTQKSLSLSPG
light 1: QSALTQPPSASGSPGQSVTISCTGTSSDVGGYNFVSWYQQDPGKAPKLLIYEVTKRPSGVPDRFSGSKSGNTASLTVSGLQAEDEADYYCSSYAGSNNVMFGGGTKLTVLGQPKAAPSVTLFPPSSEELQANKATLVCLISDFYPGAVTVAWKADSSPVKAGVETTTPSKQSNNKYAASSYLSLTPEQWKSHRSYSCQVTHEGSTVEKTVAPTECS
heavy 2: QVQLVQSGAEVKKPGASVKVSCQASGYRFSNFVIHWVRQAPGQRFEWMGWINPYNGNKEFSAKFQDRVTFTADTSANTAYMELRSLRSADTAVYYCARVGPYSWDDSPQDNYYMDVWGKGTTVIVSSASTKGPSVFPLAPSSKSTSGGTAALGCLVKDYFPEPVTVSWNSGALTSGVHTFPAVLQSSGLYSLSSVVTVPSSSLGTQTYICNVNHKPSNTKVDKRVEPKSCDKTHTCPPCPAPEFEGGPSVFLFPPKPKDTLMISRTPEVTCVVVAVSHEDPEVKFNWYVDGVEVHNAKTKPREEQYNSTYRVVSVLTVLHQDWLNGKEYKCKVSNKALPAPIEKTISKAKGQPREPQVYTLPPSREEMTKNQVSLTCLVKGFYPSDIAVEWESNGQPENNYKTTPPVLDSDGSFFLYSRLTVDKSRWQQGNVFSCSVMHEALHNHYTQKSLSLSPG
light 2: EIVLTQSPGTLSLSPGERATFSCRSSHSIRSRRVAWYQHKPGQAPRLVIHGVSNRASGISDRFSGSGSGTDFTLTITRVEPEDFALYYCQVYGASSYTFGQGTKLERKRTVAAPSVFIFPPSDEQLKSGTASVVCLLNNFYPREAKVQWKVDNALQSGNSQESVTEQDSKDSTYSLSSTLTLSKADYEKHKVYACEVTHQGLSSPVTKSFNRGEC
notes: Fab-arm exchange of IgG1-DR4-FEAL and IgG1-b12-FEAR
EC50 (read off the curve) [1]: ~1 µg/mL | EC50 [2]: 1.12 µg/mL | EC50 [3]: 1.23 µg/mL | EC50 [4]: 1.02 µg/mL

B2: IgG1-FAP5-FEAL (antibody)
heavy: QVQLQQSGAELARPGASVNLSCLASGYTFTNNGINWLKQRTGQGLEWIGEIYPRSTNTLYNEKFKGKATLTADRSSNTAYMELRSLTSEDSAVYFCARTLTAPFAFWGQGTLVTVSSASTKGPSVFPLAPSSKSTSGGTAALGCLVKDYFPEPVTVSWNSGALTSGVHTFPAVLQSSGLYSLSSVVTVPSSSLGTQTYICNVNHKPSNTKVDKRVEPKSCDKTHTCPPCPAPEFEGGPSVFLFPPKPKDTLMISRTPEVTCVVVAVSHEDPEVKFNWYVDGVEVHNAKTKPREEQYNSTYRVVSVLTVLHQDWLNGKEYKCKVSNKALPAPIEKTISKAKGQPREPQVYTLPPSREEMTKNQVSLTCLVKGFYPSDIAVEWESNGQPENNYKTTPPVLDSDGSFLLYSKLTVDKSRWQQGNVFSCSVMHEALHNHYTQKSLSLSPG
light: QIVLTQSPAIMSASPGELVTMTCSASSGVNFMHWYQQLSGTSPKRWIFDTSKLASGVPARFSGSGSGTSYSLTISSMEAEDAATYYCQQWSFNPPTFGGGTKLEIKRTVAAPSVFIFPPSDEQLKSGTASVVCLLNNFYPREAKVQWKVDNALQSGNSQESVTEQDSKDSTYSLSSTLTLSKADYEKHKVYACEVTHQGLSSPVTKSFNRGEC
notes: Prior art clone FAP5 (US20090304718A1) with FEAL constant region
EC50 [5]: 0.15 µg/mL | EC50 [6]: 0.2 µg/mL

Source: patent US20250002610A1 (Genmab, published 2025)
